{"source": "patent US20240117018A1", "experiment_in_all_cases": "cell-based or functional assay", "key": {"[1]": {"target": "HIV-0013095-2.11 Env pseudovirus (HIV-1)"}, "[2]": {"target": "RHPA4259.7 Env pseudovirus (HIV-1)"}, "[3]": {"target": "CNE53 Env pseudovirus (HIV-1)"}, "[4]": {"target": "Ce704809221_1B3 Env pseudovirus (HIV-1)"}}}
{"binder": "N49P23 (antibody, V domains shown) VH: QVRLVQSGAGARKTGASMKLSCSTSGYTFTTHHGHFINWVRQARGQGLEWMGWMNPMTGQMNIEGKFQGRVTLTRDIYSDTAYMEMTRLTTGDTGTYYCARGDFGQNYPFHYWGQGSLVIVSS VL: LSALTQPASVSGSPGQSVTISCSGTNRYLVSWYQQHPDKAPKLIIYDDNKRPSGISDRFSASRPDDTASLTISGLQTGDEATYWCASYERFGGGTRLTVLS", "values": [{"measurement": "IC50", "setting": "[1]", "value": 0.114, "unit": "µg/mL"}, {"measurement": "IC80", "setting": "[1]", "value": 0.899, "unit": "µg/mL"}, {"measurement": "MPI", "setting": "[1]", "value": 96}, {"measurement": "IC50", "setting": "[2]", "value": 0.01, "unit": "µg/mL"}, {"measurement": "IC80", "setting": "[2]", "value": 0.04, "unit": "µg/mL"}, {"measurement": "MPI", "setting": "[2]", "value": 100}, {"measurement": "IC50", "setting": "[3]", "value": 0.026, "unit": "µg/mL"}, {"measurement": "IC80", "setting": "[3]", "value": 0.095, "unit": "µg/mL"}, {"measurement": "MPI", "setting": "[3]", "value": 100}, {"measurement": "IC50", "setting": "[4]", "value": 0.083, "unit": "µg/mL"}, {"measurement": "IC80", "setting": "[4]", "value": 0.643, "unit": "µg/mL"}, {"measurement": "MPI", "setting": "[4]", "value": 100}]}
{"binder": "N49P22 (antibody, V domains shown) V domain 1: HIQLLQSGPQVKKSGDTVRISCETSGYNFVDSRIHWVRQTPEKRLRWMGWINPLQGGVNYAPEFQGRIRMTRDTFIDTVYVDLSGLTPADTAYYYCARGIDGKSYPFHFWGHGTRVTVFS V domain 2: RFALTQPASVSGSPGQTITITCAGGSVSWFHFPPGKTPRLIIYESSKRPSGVSPRFSGSQSGSTASLIISGLQSDDEGTYFCSILEFFGRGTLVTVLS", "values": [{"measurement": "IC50", "setting": "[1]", "value": "> 50", "unit": "µg/mL"}, {"measurement": "IC80", "setting": "[1]", "value": "> 50", "unit": "µg/mL"}, {"measurement": "MPI", "setting": "[1]", "value": 9}, {"measurement": "IC50", "setting": "[2]", "value": 0.637, "unit": "µg/mL"}, {"measurement": "IC80", "setting": "[2]", "value": 5.6, "unit": "µg/mL"}, {"measurement": "MPI", "setting": "[2]", "value": 92}, {"measurement": "IC50", "setting": "[3]", "value": 0.779, "unit": "µg/mL"}, {"measurement": "IC80", "setting": "[3]", "value": 5.11, "unit": "µg/mL"}, {"measurement": "MPI", "setting": "[3]", "value": 93}, {"measurement": "IC50", "setting": "[4]", "value": 15.8, "unit": "µg/mL"}, {"measurement": "IC80", "setting": "[4]", "value": "> 50", "unit": "µg/mL"}, {"measurement": "MPI", "setting": "[4]", "value": 60}]}
